{"source": "paper PMC6255209", "about": "(Proceedings of the National Academy of Sciences of the …, 2018)", "molecules": {"B1": {"name": "CFP-Rem[R200A/L227A] (natural protein, UniProt O35929 1-297, looked up)", "chain": "MTLNTQQEAKTTLRRRASTPLPLSSRGHQPGRLCTAPSAPSQHPRLGQSVSLNPPVRKPSPAQDGWSSESSDSEGSWEALYRVVLLGDPGVGKTSLASLFAEKQDRDPHEQLGGVYERTLSVDGEDTTLVVMDTWEAEKLDESWCQESCLQAGSAYVIVYSIADRSSFESASELRIQLRRTHQANHVPIILVGNKADLAACREVSVEEGRACAVVFDCKFIETSATAQHNVTELFEGVVRQLRLRRQDNAAPETPSPRRRASLGQRARRFLARLTARSARRRALKARSKSCHNLAVL"}}, "key": {"YFP-β3 [1]": {"target": "YFP-β3 (UniProt P54287)", "sequence (P54287 whole entry)": "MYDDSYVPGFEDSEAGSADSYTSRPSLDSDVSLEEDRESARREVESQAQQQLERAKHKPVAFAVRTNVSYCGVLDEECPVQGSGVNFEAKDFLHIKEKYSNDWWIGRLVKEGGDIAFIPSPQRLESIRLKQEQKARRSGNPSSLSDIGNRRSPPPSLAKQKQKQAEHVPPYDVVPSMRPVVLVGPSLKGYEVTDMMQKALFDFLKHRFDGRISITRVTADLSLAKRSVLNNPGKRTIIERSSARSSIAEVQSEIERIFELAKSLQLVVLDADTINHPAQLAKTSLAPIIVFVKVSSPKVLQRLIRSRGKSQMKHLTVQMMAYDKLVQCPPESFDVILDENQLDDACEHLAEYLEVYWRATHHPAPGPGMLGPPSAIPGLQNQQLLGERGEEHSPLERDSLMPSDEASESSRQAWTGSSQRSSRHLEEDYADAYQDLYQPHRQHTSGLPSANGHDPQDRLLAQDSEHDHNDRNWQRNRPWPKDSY", "experiment": "FRET or BRET"}, "YFP-β3 [2]": {"target": "YFP-β3 (UniProt P54287 1-484)", "sequence (P54287 whole entry)": "as above", "experiment": "FRET or BRET"}}, "data": [{"molecule": "CFP-Rad (from UniProt P55042 1-308) (natural protein)", "values": [{"measurement": "FRET efficiency", "setting": "YFP-β3 [1]", "result": 0.123}]}, {"molecule": "CFP-Rad[R208A/L235A] (from UniProt P55042 1-308) (natural protein)", "values": [{"measurement": "fold decrease in affinity compared with CFP-Rad", "setting": "YFP-β3 [1]", "result": 8, "unit": "fold"}]}, {"molecule": "B1", "values": [{"measurement": "fold decrease in affinity compared with WT Rem", "setting": "YFP-β3 [2]", "result": 5, "unit": "fold"}]}]}
